Source: US7119182 (University of California, dated 2006)
Square brackets hold non-standard residues; d marks the D form. Ends that are not written are not given here. * marks the point of attachment. 2‑Mba = 2-mercaptobenzoic acid, O=C(c1ccccc1S)*; Cha = N[C@@H](CC1CCCCC1)C(=O)O; Mpa = O=C(O)CCS

B1: "new amino-terminal" peptide SFLLRNPNDKYEPF (peptide)
peptide: SFLLRNPNDKYEPF
B2: Mpr-FLLRNPNDKYE-NH2 (peptide)
peptide: [Mpa]FLLRNPNDKYE-NH2
SMILES: CC(C)C[C@H](NC(=O)[C@H](Cc1ccccc1)NC(=O)CCS)C(=O)N[C@@H](CC(C)C)C(=O)N[C@@H](CCCNC(=N)N)C(=O)N[C@@H](CC(N)=O)C(=O)N1CCC[C@H]1C(=O)N[C@@H](CC(N)=O)C(=O)N[C@@H](CC(=O)O)C(=O)N[C@@H](CCCCN)C(=O)N[C@@H](Cc1ccc(O)cc1)C(=O)N[C@@H](CCC(=O)O)C(N)=O
B3: (2-Mba)-F(Cha)(Cha)RKPNDK-NH2 (peptide)
peptide: {2‑Mba}-F[Cha][Cha]RKPNDK-NH2
SMILES: N=C(N)NCCC[C@H](NC(=O)[C@H](CC1CCCCC1)NC(=O)[C@H](CC1CCCCC1)NC(=O)[C@H](Cc1ccccc1)NC(=O)c1ccccc1S)C(=O)N[C@@H](CCCCN)C(=O)N1CCC[C@H]1C(=O)N[C@@H](CC(N)=O)C(=O)N[C@@H](CC(=O)O)C(=O)N[C@@H](CCCCN)C(N)=O
B4: LDPRPFLLRNPNDKYEPFWEDEEKNES (peptide)
peptide: LDPRPFLLRNPNDKYEPFWEDEEKNES
B5: LDPRPFLL (peptide)
peptide: LDPRPFLL
B6: Mpr-FLLRNPNDK (peptide)
peptide: [Mpa]FLLRNPNDK

Experiments:
Experiment in all cases: cell-based or functional assay
human thrombin receptor [1] = biological target: T1, human thrombin receptor (human, UniProt P25116 42-425)
T1 chain: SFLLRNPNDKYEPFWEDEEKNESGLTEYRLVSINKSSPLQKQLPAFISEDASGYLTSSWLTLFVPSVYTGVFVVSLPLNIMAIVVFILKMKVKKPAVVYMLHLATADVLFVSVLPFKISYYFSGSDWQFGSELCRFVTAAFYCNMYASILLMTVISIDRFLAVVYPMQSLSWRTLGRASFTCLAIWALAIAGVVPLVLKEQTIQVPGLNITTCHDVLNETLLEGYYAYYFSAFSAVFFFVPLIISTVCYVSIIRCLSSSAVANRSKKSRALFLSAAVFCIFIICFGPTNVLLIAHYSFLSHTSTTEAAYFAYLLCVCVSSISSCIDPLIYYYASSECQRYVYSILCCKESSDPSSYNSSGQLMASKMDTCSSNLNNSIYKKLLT

[2] = biological target: T2, mutant thrombin receptor with the amino acid substitution R41A (human, UniProt P25116 22-425, limits assumed)
T2 chain: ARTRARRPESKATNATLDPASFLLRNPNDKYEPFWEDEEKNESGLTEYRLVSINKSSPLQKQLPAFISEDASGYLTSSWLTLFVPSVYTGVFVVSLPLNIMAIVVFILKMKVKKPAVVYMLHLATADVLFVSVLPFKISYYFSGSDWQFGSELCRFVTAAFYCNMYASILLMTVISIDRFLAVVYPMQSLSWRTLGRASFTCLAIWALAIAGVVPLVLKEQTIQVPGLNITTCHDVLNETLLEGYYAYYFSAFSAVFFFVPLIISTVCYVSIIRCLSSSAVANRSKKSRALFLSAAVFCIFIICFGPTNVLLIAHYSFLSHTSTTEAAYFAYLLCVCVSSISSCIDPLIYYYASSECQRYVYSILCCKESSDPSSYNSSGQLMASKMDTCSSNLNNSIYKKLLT

human thrombin receptor [3] = biological target: T1, human thrombin receptor
thrombin = thrombin (UniProt P00734 364-622; P00734 328-363)

IC50 (50% inhibition of thrombin-induced platelet activation or aggregation) (human thrombin receptor [3]) [µM] | IC50, inhibition of thrombin-induced platelet ATP secretion (peptide preincubated with thrombin) (thrombin) [µM] | other results | Binder
 |  | Fold increase in 45Ca (release by oocytes expressing receptor cRNA); “SFLL” peptide 40 µM (human thrombin receptor [1]): 32 fold; Fold increase in 45Ca (release by oocytes expressing receptor cRNA); “SFLL” peptide 200 µM (human thrombin receptor [1]): 42 fold; Fold increase in 45Ca (release by oocytes expressing receptor cRNA); “SFLL” peptide 200 µM [2]: 53 fold | B1
108 |  |  | B2
50 |  |  | B3
 | ~0.5 |  | B4
 | ~200 |  | B5
80 |  |  | B6
